Laboratory results published in paper doi:10.1101/2024.02.19.580884 (bioRxiv, 2024).

Experiments:
Assay in all cases: pull-down
[1] = molecular target: T1, 6xHis-AccC (Bacillus subtilis 168, UniProt P49787 1-450)
T1 sequence (looked up): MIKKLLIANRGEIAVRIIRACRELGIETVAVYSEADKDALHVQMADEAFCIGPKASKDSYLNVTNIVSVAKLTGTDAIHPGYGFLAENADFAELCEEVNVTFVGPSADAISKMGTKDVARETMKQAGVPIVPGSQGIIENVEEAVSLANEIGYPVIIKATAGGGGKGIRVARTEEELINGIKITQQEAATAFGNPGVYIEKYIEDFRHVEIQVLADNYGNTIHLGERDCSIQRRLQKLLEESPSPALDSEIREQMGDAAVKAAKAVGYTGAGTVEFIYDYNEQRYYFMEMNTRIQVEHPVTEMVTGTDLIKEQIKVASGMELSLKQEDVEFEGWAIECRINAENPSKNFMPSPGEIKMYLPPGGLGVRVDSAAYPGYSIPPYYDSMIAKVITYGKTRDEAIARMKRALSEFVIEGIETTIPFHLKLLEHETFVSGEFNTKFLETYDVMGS

[2] = molecular target: T2, Strep-tagged AccC (Bacillus subtilis 168, UniProt P49787 1-450)
T2 sequence (looked up): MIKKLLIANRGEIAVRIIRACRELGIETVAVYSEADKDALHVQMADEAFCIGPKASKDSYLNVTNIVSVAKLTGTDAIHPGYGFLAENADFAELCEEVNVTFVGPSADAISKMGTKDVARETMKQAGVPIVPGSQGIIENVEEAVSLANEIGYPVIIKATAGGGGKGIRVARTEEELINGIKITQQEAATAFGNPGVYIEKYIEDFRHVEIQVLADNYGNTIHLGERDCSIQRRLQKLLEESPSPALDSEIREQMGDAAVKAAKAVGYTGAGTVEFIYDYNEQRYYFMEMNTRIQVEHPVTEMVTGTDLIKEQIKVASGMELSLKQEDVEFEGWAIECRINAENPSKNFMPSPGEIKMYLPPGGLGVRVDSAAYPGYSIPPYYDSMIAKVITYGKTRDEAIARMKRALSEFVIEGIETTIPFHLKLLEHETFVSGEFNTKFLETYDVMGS

[3] = molecular target: T3, Strep-tagged AccB (Bacillus subtilis 168, UniProt P49786 1-159)
T3 sequence (looked up): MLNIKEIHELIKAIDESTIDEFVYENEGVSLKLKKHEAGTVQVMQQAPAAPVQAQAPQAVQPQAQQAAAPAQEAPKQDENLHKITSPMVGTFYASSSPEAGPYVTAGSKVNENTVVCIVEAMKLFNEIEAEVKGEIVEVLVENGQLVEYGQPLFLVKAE

Binder	binding result [1]	binding result [2]	binding result [3]
GST-tagged RfaA (natural protein, Bacillus subtilis 168, UniProt P54519 1-135, looked up) MKDNSLLKMDHEDTHLGKVEIAPEVIEVIAGIAASEVDGVAEMRGNFATGVVERFGKVNHGKGVKVDLADDGITIDVYCVVTFGVSIPKVAASVQENIRQTLLNMTSLSINEINIHIVGIQFDTKAQEVQIDEEM	binds		
6xHis-SUMO-RfaA (natural protein, Bacillus subtilis 168, UniProt P54519 1-135, looked up) MKDNSLLKMDHEDTHLGKVEIAPEVIEVIAGIAASEVDGVAEMRGNFATGVVERFGKVNHGKGVKVDLADDGITIDVYCVVTFGVSIPKVAASVQENIRQTLLNMTSLSINEINIHIVGIQFDTKAQEVQIDEEM		binds	binds
